One experiment addresses HLA-B*53:01. The experiment can be described thus: IEDB peptide-MHC binding, purified MHC/competitive/radioactivity; filed as Kd, often an IC50 or EC50 that approximates it; ≥ and ≤ were set here for values at or beyond the usual limits of such assays.
Experiment [1] addresses HLA-B*07:02. The experiment is described as above.
The target of the next experiment is HLA-B*51:01. The description is as above.
The next experiment deals with HLA-B*54:01. The experiment is described as above.
The next experiment addresses HLA-B*35:01. Described as above.
The target of experiment [2] is HLA-B*08:01. The experiment is described as above. The conditions noted are these: source organism: Hepatitis C virus (isolate H).
In a further experiment the target is HLA-B*40:01. The experiment can be described thus: IEDB peptide-MHC binding, purified MHC/direct/fluorescence; filed as Kd, often an IC50 or EC50 that approximates it; ≥ and ≤ were set here for values at or beyond the usual limits of such assays. The conditions noted are these: source organism: Campylobacter jejuni RM1221.
In another experiment the target is HLA-A*26:01. Described as above. The conditions noted are these: source organism: Campylobacter jejuni RM1221.
The next experiment addresses HLA-B*58:01. Described as above. As to conditions: source organism: Campylobacter jejuni RM1221.
The next experiment deals with HLA-B*27:05. The description is as above. As to conditions: source organism: Campylobacter jejuni RM1221.
A further experiment concerns the target HLA-A*24:03. The description is as above. The conditions noted are these: source organism: Campylobacter jejuni RM1221.
The target of the next experiment is HLA-B*15:01. Described as above. As to conditions: source organism: Campylobacter jejuni RM1221.
The target of the next experiment is HLA-B*44:02. The description is as above. The conditions noted are these: source organism: Campylobacter jejuni RM1221.
Experiment [3] concerns the target HLA-A*11:01. The description is as above. As to conditions: source organism: Campylobacter jejuni RM1221.
Experiment [4] addresses HLA-B*07:02. The experiment is described as above. As to conditions: source organism: Campylobacter jejuni RM1221.
Experiment [5] has as its target HLA-A*02:01. The description is as above. The conditions noted are these: source organism: Campylobacter jejuni RM1221.
The next experiment addresses HLA-A*69:01. Described as above. As to conditions: source organism: Campylobacter jejuni RM1221.
A further experiment deals with HLA-A*01:01. The description is as above. As to conditions: source organism: Campylobacter jejuni.
For experiment [6], the target named is HLA-B*08:01. The description is as above. As to conditions: source organism: Campylobacter jejuni RM1221.
For experiment [7], the target named is HLA-A*31:01. The description is as above. As to conditions: source organism: Campylobacter jejuni RM1221.
Experiment [8] addresses HLA-A*03:01. Described as above. The conditions noted are these: source organism: Campylobacter jejuni RM1221.
The next experiment has as its target HLA-A*33:01. Put plainly: IEDB peptide-MHC binding, purified MHC/competitive/radioactivity; filed as Kd, often an IC50 or EC50 that approximates it; ≥ and ≤ were set here for values at or beyond the usual limits of such assays. As to conditions: source organism: Vaccinia virus WR.
For the next experiment, the target named is HLA-A*68:01. Described as above. As to conditions: source organism: Vaccinia virus WR.
For a further experiment, the target named is HLA-A*02:03. The description is as above. As to conditions: source organism: Vaccinia virus WR.
In a further experiment the target is HLA-A*02:02. The experiment is described as above. As to conditions: source organism: Vaccinia virus WR.
Experiment [9] addresses HLA-A*11:01. The description is as above. As to conditions: source organism: Vaccinia virus WR.
A further experiment concerns the target HLA-A*68:02. Described as above. As to conditions: source organism: Vaccinia virus WR.
The next experiment concerns the target HLA-A*02:06. The description is as above. As to conditions: source organism: Vaccinia virus WR.
Experiment [10] deals with HLA-A*31:01. The experiment is described as above. As to conditions: source organism: Vaccinia virus WR.
The target of experiment [11] is HLA-A*03:01. The experiment is described as above. The conditions noted are these: source organism: Vaccinia virus WR.
In experiment [12] the target is HLA-A*02:01. The description is as above. As to conditions: source organism: Vaccinia virus WR.
The mark [13] stands for this setting: source organism: SARS coronavirus Tor2.
The mark [14] stands for this setting: source organism: Vaccinia virus WR.
[15] abbreviates: source organism: Mammarenavirus whitewaterense.
The mark [16] stands for this setting: source organism: Hepatitis C virus (isolate H).
Where [17] appears, read: source organism: Triticum aestivum.
Where [18] appears, read: source organism: Mammarenavirus tacaribeense.

Here are results for 18 sequences from the Immune Epitope Database (IEDB).

Where only a bound is given, the exact number is not on record here.

In general, Kd refers to the constant that tells how readily two partners part at equilibrium. Take APVSAMVRM: the Kd with HLA-B*53:01 (setting [13]) was 749 nM; in the experiment with HLA-B*07:02 [1] (setting [13]), 158 nM; in the experiment with HLA-B*51:01 (setting [13]) it was 1770 nM; with HLA-B*54:01 (setting [13]), at least 23200 nM; with HLA-B*35:01 (setting [13]), 433 nM.

In the case of DPEKFNARM, the equilibrium dissociation constant (Kd) with HLA-B*53:01 (setting [14]) is 1300 nM; in the experiment with HLA-B*07:02 [1] (setting [14]) it was at least 66700 nM; in the experiment with HLA-B*51:01 (setting [14]), 17000 nM; with HLA-B*54:01 (setting [14]) it was at least 78100 nM; with HLA-B*35:01 (setting [14]), 948 nM.

On to FPLKLRGTAV, for which the Kd with HLA-B*53:01 (setting [13]) is 4480 nM; with HLA-B*07:02 [1] (setting [13]) it was 135 nM; in the experiment with HLA-B*51:01 (setting [13]), 659 nM; with HLA-B*54:01 (setting [13]), 1.06 nM; with HLA-B*35:01 (setting [13]), 4530 nM.

As for GPFEASWAI, the Kd is 254 nM in the experiment with HLA-B*53:01 (setting [15]); 411 nM with HLA-B*07:02 [1] (setting [15]); 1000 nM with HLA-B*51:01 (setting [15]); 311 nM with HLA-B*54:01 (setting [15]); 801 nM with HLA-B*35:01 (setting [15]).

Turning to HPALVFDIT, the dissociation constant (Kd) with HLA-B*53:01 (setting [16]) was determined as 650 nM; with HLA-B*51:01 (setting [16]), 7090 nM; in the experiment with HLA-B*08:01 [2], 974 nM; in the experiment with HLA-B*54:01 (setting [16]), 0.285 nM; in the experiment with HLA-B*35:01 (setting [16]) it was 5.67 nM.

In the case of IPCMDVVL, the equilibrium dissociation constant (Kd) was at least 41100 nM with HLA-B*53:01 (setting [17]); at least 40400 nM with HLA-B*07:02 [1] (setting [17]); 1300 nM with HLA-B*51:01 (setting [17]); at least 87700 nM in the experiment with HLA-B*54:01 (setting [17]); 16200 nM with HLA-B*35:01 (setting [17]).

As to IPKGIMMNV, the dissociation constant Kd with HLA-B*53:01 (setting [13]) is at least 23800 nM; in the experiment with HLA-B*07:02 [1] (setting [13]), 128 nM; with HLA-B*51:01 (setting [13]), 8270 nM; with HLA-B*54:01 (setting [13]), 14.7 nM; in the experiment with HLA-B*35:01 (setting [13]), at least 20900 nM.

Consider KNDAVYIGY, for which the dissociation constant Kd in the experiment with HLA-B*40:01, with HLA-A*26:01, in the experiment with HLA-B*58:01, with HLA-B*27:05, with HLA-A*24:03 and with HLA-B*15:01 was at least 20000 nM each time. The Kd in the experiment with HLA-B*44:02 was at least 20000 nM; in the experiment with HLA-A*11:01 [3], at least 20000 nM; with HLA-B*07:02 [4], at least 20000 nM; in the experiment with HLA-A*02:01 [5], at least 20000 nM; in the experiment with HLA-A*69:01 it was at least 20000 nM; with HLA-A*01:01, 19200 nM. In addition, the Kd with HLA-B*08:01 [6], in the experiment with HLA-A*31:01 [7] and with HLA-A*03:01 [8] was at least 20000 nM throughout.

As to KPTESACSSL, the dissociation constant (Kd) with HLA-B*53:01 (setting [13]) is 8380 nM; in the experiment with HLA-B*07:02 [1] (setting [13]), 58.4 nM; with HLA-B*51:01 (setting [13]), 4230 nM; with HLA-B*54:01 (setting [13]) it was at least 50400 nM; with HLA-B*35:01 (setting [13]) it was 16600 nM.

For the sequence LPYPDPSRIL, the Kd with HLA-B*53:01 (setting [13]) is 8290 nM; with HLA-B*07:02 [1] (setting [13]), 3790 nM; with HLA-B*51:01 (setting [13]) it was 1000 nM; with HLA-B*54:01 (setting [13]) it was 9530 nM; in the experiment with HLA-B*35:01 (setting [13]) it was at least 27000 nM.

For MPEKRNVVV, the Kd with HLA-B*53:01 (setting [14]) was 400 nM; with HLA-B*07:02 [1] (setting [14]), 1.8 nM; with HLA-B*51:01 (setting [14]), 127 nM; in the experiment with HLA-B*54:01 (setting [14]) it was 33 nM; with HLA-B*35:01 (setting [14]), 412 nM.

For the sequence MPYNILDRII, the dissociation constant (Kd) with HLA-B*53:01 (setting [14]) was 45.5 nM; in the experiment with HLA-B*07:02 [1] (setting [14]) it was 265 nM; with HLA-B*51:01 (setting [14]), 124 nM; in the experiment with HLA-B*54:01 (setting [14]), 8.4 nM; with HLA-B*35:01 (setting [14]), 1640 nM.

Consider QIFEVYWYL, for which the dissociation constant (Kd) with HLA-A*33:01 is 775 nM; with HLA-A*68:01 it was 873 nM; in the experiment with HLA-A*02:03 it was 186 nM; in the experiment with HLA-A*02:02, 1.12 nM; with HLA-B*53:01 (setting [14]) it was 1400 nM; with HLA-A*11:01 [9], 67.3 nM. Moreover, the dissociation constant Kd with HLA-A*68:02 stood at 8.89 nM; in the experiment with HLA-B*07:02 [1] (setting [14]), 16100 nM; with HLA-B*51:01 (setting [14]) it was 5540 nM; in the experiment with HLA-A*02:06 it was 19.2 nM; in the experiment with HLA-A*31:01 [10], 143 nM; in the experiment with HLA-A*03:01 [11], 1060 nM. The Kd with HLA-B*54:01 (setting [14]) was at least 5000 nM; in the experiment with HLA-B*35:01 (setting [14]), 6500 nM.

With QPFPPQQPY, the Kd in the experiment with HLA-B*53:01 (setting [17]) was at least 78200 nM; with HLA-B*07:02 [1] (setting [17]), at least 77500 nM; with HLA-B*51:01 (setting [17]), at least 77500 nM; with HLA-B*54:01 (setting [17]), at least 78100 nM; with HLA-B*35:01 (setting [17]), 304 nM.

For the sequence RLLIWAYLSK, the dissociation constant (Kd) in the experiment with HLA-A*33:01 is 4870 nM; in the experiment with HLA-A*68:01 it was 1470 nM; with HLA-A*02:03, 17300 nM; in the experiment with HLA-A*02:02, at least 42300 nM; with HLA-B*53:01 (setting [14]) it was 10400 nM; with HLA-A*11:01 [9] it was 0.114 nM. The dissociation constant (Kd) is at least 40600 nM with HLA-A*68:02; at least 69600 nM with HLA-B*07:02 [1] (setting [14]); 4990 nM with HLA-A*02:01 [12]; at least 34000 nM with HLA-B*51:01 (setting [14]); 14800 nM with HLA-A*02:06; 447 nM with HLA-A*31:01 [10]. The dissociation constant (Kd) with HLA-A*03:01 [11] was 0.159 nM; in the experiment with HLA-B*54:01 (setting [14]), 11300 nM; with HLA-B*35:01 (setting [14]), at least 69900 nM.

Consider TPNNLNKIQL, for which the Kd is 2930 nM with HLA-B*53:01 (setting [14]); 64.9 nM with HLA-B*07:02 [1] (setting [14]); at least 69600 nM in the experiment with HLA-B*51:01 (setting [14]); 13500 nM with HLA-B*54:01 (setting [14]); 4430 nM with HLA-B*35:01 (setting [14]).

On to VPYCNYTRFW, for which the Kd is 15.9 nM in the experiment with HLA-B*53:01 (setting [18]); 3530 nM with HLA-B*07:02 [1] (setting [18]); 1020 nM with HLA-B*51:01 (setting [18]); at least 22500 nM with HLA-B*54:01 (setting [18]); 3400 nM in the experiment with HLA-B*35:01 (setting [18]).

For YPQPQPQY, the Kd is 5390 nM with HLA-B*53:01 (setting [17]); at least 87300 nM in the experiment with HLA-B*07:02 [1] (setting [17]); 19500 nM in the experiment with HLA-B*51:01 (setting [17]); at least 70000 nM in the experiment with HLA-B*54:01 (setting [17]); 472 nM in the experiment with HLA-B*35:01 (setting [17]).
